Where two headings read alike, the source gives them in different places.
Key:
[1] = biological target: apomucin (deglycosylated mucin) prepared from bovine submaxillary mucin (bovine)
[2] = biological target: apomucin (deglycosylated mucin) prepared from bovine submaxillary mucin (bovine); remark: listed apart in the source
[3] = biological target: serine containing acceptor peptide …
[4] = biological target: serine containing acceptor peptide …; remark: listed apart in the source

Total activity (U), cell lysate [1] | specific activity [2] | Km [3] | Km [4] | Substance
16.2 U | – | – | – | cloned full-length (membrane bound) bovine GalNAc-transferase expressed in Sf9 cells (enzyme)
– | 2160 U/mg protein | 3.6 mM | 3.5 mM | soluble, secreted recombinant bovine GalNAc-transferase (GalNAcTs) expressed in Sf9 cells (enzyme)

Source: patent publication US5910570
